Laboratory results published in patent publication US20240301064A1 (published 2024).
Changes are numbered by the printed parent chain. Blank lines part the entries; values can stand above or below the binder they belong to.

How the values were obtained:
[1] = biological target: PD-1 on PD-1 reporter Jurkat cells; assay: cell-based or functional assay
mouse PD-1 = biological target: T1, mouse PD-1 (mouse, UniProt Q02242 25-167, limits assumed); assay: BLI, antibody on AHC tip
T1 sequence (looked up): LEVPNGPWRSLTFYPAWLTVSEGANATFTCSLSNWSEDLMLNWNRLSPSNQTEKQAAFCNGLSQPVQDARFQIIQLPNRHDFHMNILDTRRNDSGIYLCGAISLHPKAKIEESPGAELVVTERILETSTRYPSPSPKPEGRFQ

human PD-1 = biological target: T2, human PD-1 (human, UniProt Q15116 25-167, limits assumed); assay: BLI, antibody on AHC tip, soluble PD-1
T2 construct: also called huPD-1
T2 sequence (Q15116 25-167 limits assumed): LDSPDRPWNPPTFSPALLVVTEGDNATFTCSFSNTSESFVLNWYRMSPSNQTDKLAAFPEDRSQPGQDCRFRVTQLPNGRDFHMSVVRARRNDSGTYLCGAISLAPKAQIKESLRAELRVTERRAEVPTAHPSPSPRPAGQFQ

cynomolgus PD-1 = biological target: T3, cynomolgus PD-1 (cynomolgus); assay: BLI, antibody on AHC tip, soluble PD-1
T3 construct: also called cyno PD-1

human MAdCAM [2] = biological target: T4, human MAdCAM (human, UniProt Q13477 19-317, limits assumed); assay: BLI, antibody on AHC tip, soluble MAdCAM
T4 construct: also called huMAdCAM
T4 sequence (looked up): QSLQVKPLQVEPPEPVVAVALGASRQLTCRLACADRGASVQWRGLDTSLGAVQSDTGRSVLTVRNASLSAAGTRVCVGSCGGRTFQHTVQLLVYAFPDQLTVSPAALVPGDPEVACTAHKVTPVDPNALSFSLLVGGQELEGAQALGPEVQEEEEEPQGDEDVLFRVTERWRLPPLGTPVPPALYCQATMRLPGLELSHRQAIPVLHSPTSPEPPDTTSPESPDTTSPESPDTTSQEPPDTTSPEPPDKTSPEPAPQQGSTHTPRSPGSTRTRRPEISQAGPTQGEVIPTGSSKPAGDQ
Description: (§1) Anti-human IgG Fc (AHC) biosensors were equilibrated in assay buffer for 20 minutes. Test article was diluted to 10 μg/mL in assay buffer (lx PBS, 1% BSA, 0.05% Tween20). A seven-point serial dilution of human and cynomolgus PD-1 or human, cynomolgus and mouse MAdCAM was prepared in assay buffer, starting at 1000 nM down to 15.625 nM. For PD-1 binding, test article was loaded on tips for 180 s followed by a 180 s association phase with PD-1 and 240 s dissociation phase in assay buffer. For MAdCAM binding, test article was loaded on tips for 180 s followed by a 120 s association phase with MAdCAM and 180 s dissociation phase in assay buffer. […] Accordingly, PMAB65 binds human, cyno, and mouse PD-1 and MAdCAM.

mouse MAdCAM = biological target: T5, mouse MAdCAM (mouse, UniProt Q61826 22-364); assay: BLI, antibody on AHC tip, soluble MAdCAM
T5 sequence (looked up): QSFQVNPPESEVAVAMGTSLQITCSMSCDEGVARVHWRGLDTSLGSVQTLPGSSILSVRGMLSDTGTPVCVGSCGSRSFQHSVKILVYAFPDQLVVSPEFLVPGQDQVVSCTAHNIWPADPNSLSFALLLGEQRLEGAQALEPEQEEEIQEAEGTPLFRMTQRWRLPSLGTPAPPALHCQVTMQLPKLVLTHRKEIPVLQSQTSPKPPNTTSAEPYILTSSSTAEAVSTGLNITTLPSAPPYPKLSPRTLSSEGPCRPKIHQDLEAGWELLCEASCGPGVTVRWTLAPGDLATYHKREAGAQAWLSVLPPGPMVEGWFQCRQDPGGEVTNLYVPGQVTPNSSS
Description: as §1

cynomolgus MAdCAM = biological target: T6, cynomolgus MAdCAM (cynomolgus); assay: BLI, antibody on AHC tip, soluble MAdCAM
T6 chain: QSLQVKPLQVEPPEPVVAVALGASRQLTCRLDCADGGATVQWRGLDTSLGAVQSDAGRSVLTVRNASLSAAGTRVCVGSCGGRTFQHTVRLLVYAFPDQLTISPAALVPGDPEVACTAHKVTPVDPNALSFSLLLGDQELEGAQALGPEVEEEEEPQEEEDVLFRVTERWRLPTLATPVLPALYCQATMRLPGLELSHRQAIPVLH
Description: as §1

human MAdCAM [3] = biological target: T4, human MAdCAM; assay: BLI Octet
Description: (§2) Anti-human Fc biosensors were equilibrated in assay buffer (1% BSA in 1×PBS with 0.05% Tween-20) for 10 minutes before the experiment was set-up. Test articles were diluted to 5 μg/mL in assay buffer and 200 μL pipetted to 96 well plate. Human MAdCAM was titrated down, two-fold dilutions (starting at 600 nM as the highest concentration, 7-point dilution). Experiment was run using data acquisition software version 10.0 for OCTET96 RED. Test articles were captured using anti-human Fc biosensors for 180 s. Biosensors loaded with test articles were then equilibrated in assay buffer for 120 s. Association was performed in wells with huMAdCAM for 180 seconds. Dissociation was performed in wells with assay buffer for 180 s. Kinetic parameters (kon and kdis) and dissociation constant (KD) were calculated from a 1:1 global fit model using the data analysis software of the Octet96 RED software version 10.

human MAdCAM [4] = biological target: T4, human MAdCAM; assay: BLI Octet, against PRNT1
Description: as §2

PD-1 reporter Jurkat cells on test-article-loaded MAdCAM-expressing CHO cells; EC50 [1]: 0.78 nM
SHP-2 recruitment, Ig-tethered test article, PD-1 reporter Jurkat cells; EC50 [1]: 3.04 nM
binding result (mouse PD-1): no binding
Kd (human PD-1): 32.6 nM
Kd (cynomolgus PD-1): 30.3 nM
Kd (human MAdCAM [2]): 75.5 nM
Kd (mouse MAdCAM): 269 nM
Kd (cynomolgus MAdCAM): 24.3 nM
B1: PMAB65 (bispecific antibody, human IgG1, kappa)
heavy: EVQLLESGGGLVQPGGSLRLSCAASGFTFSSYDMSWVRQAPGKGLEWVSGITISGGSTYYADSVKGRFTISRDNSKNTLYLQMNSLRAEDTAVYYCARGRGGSGWLDYWGQGTTVTVSSASTKGPSVFPLAPSSKSTSGGTAALGCLVKDYFPEPVTVSWNSGALTSGVHTFPAVLQSSGLYSLSSVVTVPSSSLGTQTYICNVNHKPSNTKVDKKVEPKSCDKTHTCPPCPAPEAAGAPSVFLFPPKPKDTLMISRTPEVTCVVVDVSHEDPEVKFNWYVDGVEVHNAKTKPREEQYNSTYRVVSVLTVLHQDWLNGKEYKCKVSNKALPAPIEKTISKAKGQPREPQVYTLPPSREEMTKNQVSLTCLVKGFYPSDIAVEWESNGQPENNYKTTPPVLDSDGSFFLYSKLTVDKSRWQQGNVFSCSVMHEALHNHYTQKSLSLSPGGGGGSGGGGSGGGGSEVQLLESGGGLVQPGGSLRLSCAASGFTFSSYWMHWVRQAPGKGLEWVSYISGSGGYTNYADSVKGRFTISRDNSKNTLYLQMNSLRAEDTAVYYCARDRPYYYDMDVWGKGTTVTVSSGGGGSGGGGSGGGGSGGGGSDIQMTQSPSSLSASVGDRVTITCRASQSISSSLAWYQQKPGKAPKLLIYAASSLQSGVPSRFSGSGSGTDFTLTISSLQPEDFATYYCQQYKSYPVTFGQGTKVEIK
light: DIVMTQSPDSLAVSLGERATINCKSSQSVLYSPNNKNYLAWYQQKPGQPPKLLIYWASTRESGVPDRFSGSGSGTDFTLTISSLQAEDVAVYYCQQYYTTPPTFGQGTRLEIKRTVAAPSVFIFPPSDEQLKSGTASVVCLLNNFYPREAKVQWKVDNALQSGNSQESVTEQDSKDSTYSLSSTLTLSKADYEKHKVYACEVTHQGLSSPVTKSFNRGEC

fold lower affinity than parent PRNT1 (human MAdCAM [3]): 10 fold
B2: MIAB169 (antibody, human IgG1, kappa)
heavy: EVQLLESGGGLVQPGGSLRLSCAASGFTFSDFWMHWVRQAPGKGLEWISYISGDSGYTNYADSVKGRFTISRDNSKNTLYLQMNSLRAEDTAVYYCARDRPYYYIMDVWGKGTTVTVSSASTKGPSVFPLAPSSKSTSGGTAALGCLVKDYFPEPVTVSWNSGALTSGVHTFPAVLQSSGLYSLSSVVTVPSSSLGTQTYICNVNHKPSNTKVDKKVEPKSCDKTHTCPPCPAPEAAGAPSVFLFPPKPKDTLMISRTPEVTCVVVDVSHEDPEVKFNWYVDGVEVHNAKTKPREEQYNSTYRVVSVLTVLHQDWLNGKEYKCKVSNKALPAPIEKTISKAKGQPREPQVYTLPPSREEMTKNQVSLTCLVKGFYPSDIAVEWESNGQPENNYKTTPPVLDSDGSFFLYSKLTVDKSRWQQGNVFSCSVMHEALHNHYTQKSLSLSPGGGGGSAPTSSSTKKTQLQLEHLLLDLQMILNGINNYKNPKLTRMLTFKFYMPKKATELKHLQCLEEELKPLEEALNLAPSKNFHLRPRDLISDINVIVLELKGSETTFMCEYADETATIVEFINRWITFSQSIISTLT
light: DIQMTQSPSSLSASVGDRVTITCRASQSVSRSLAWYQQKPGKAPKLLIYAASSLQSGVPSRFSGSGSGTDFTLTISSLQPEDFATYYCQQYKSYPVTFGQGTKVEIKRTVAAPSVFIFPPSDEQLKSGTASVVCLLNNFYPREAKVQWKVDNALQSGNSQESVTEQDSKDSTYSLSSTLTLSKADYEKHKVYACEVTHQGLSSPVTKSFNRGEC
notes: also called MIAB169-CHO; MIAB169-HEK

fold reduction of MAdCAM affinity (human MAdCAM [4]): 20 fold
B3: MIAB183 (antibody, human IgG1, kappa)
heavy: B2 heavy with D31S, F32Y, I48V, Y50A, D54S, S55G, Y57S, N59Y, I105Y
light: B2 light with R31S
notes: also called MIAB183-001

fold reduction of MAdCAM affinity (human MAdCAM [4]): 40 fold
B4: MIAB184 (antibody, human IgG1, kappa)
heavy: B2 heavy with D31S, F32Y, I48V, Y50A, D54S, S55G, Y57S, N59Y, I105Y
light: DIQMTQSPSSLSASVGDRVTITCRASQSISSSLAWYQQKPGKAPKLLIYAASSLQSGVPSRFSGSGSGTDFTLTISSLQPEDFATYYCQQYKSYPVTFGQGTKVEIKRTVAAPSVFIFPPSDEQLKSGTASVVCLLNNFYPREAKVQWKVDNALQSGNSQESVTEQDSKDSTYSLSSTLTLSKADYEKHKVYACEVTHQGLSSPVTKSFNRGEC
notes: also called MIAB184-001
